The values that follow come from patent US20250051433A1.

The target in assay [1] is human long form TSLP expressed on cell membrane. Briefly: FACS on cells expressing the membrane human long-form TSLP fusion protein, MFI; ambiguous fit of a flat curve (Bottom 799.3, Top 857.9), see non_binding; unit taken from the concentration axis.
For assay [2] the target is unchanged. Briefly: FACS on cells expressing the membrane human long-form TSLP fusion protein, MFI; fit of a flat curve (Bottom 626.4, Top ~ 628.6), see non_binding; unit taken from the concentration axis.
The target is the same in assay [3]. Put plainly: FACS on cells expressing the membrane human long-form TSLP fusion protein, MFI; ambiguous fit of a flat curve (Bottom 609.8, Top ~ 596.1), see non_binding; unit taken from the concentration axis.
Assay [4] has the same target. Briefly: FACS on cells expressing the membrane human long-form TSLP fusion protein, MFI; fit of a flat curve (Bottom 695.0, Top 1001), see non_binding; unit taken from the concentration axis.
For assay [5] the target is unchanged. Briefly: FACS on cells expressing the membrane human long-form TSLP fusion protein, MFI; ambiguous fit of a flat curve (~ 906.7, ~ 1190), column headed IC50, see non_binding; unit taken from the concentration axis.
The target of assay [6] is human long-form TSLP protein (Acro, tsp-h5255 or tsp-h52ha) (human) (UniProt Q969D9). Put plainly: ELISA on coated human long-form TSLP, OD450; ambiguous fit of a flat curve (Bottom 0.07414, Top ~ 1078), see non_binding; unit taken from the concentration axis. Background: In an ELISA, binding on a coated surface is turned into a signal by an enzyme label.
Chain of human long-form TSLP protein (Acro, tsp-h5255 or tsp-h52ha) (human) (Q969D9 29-159 R127A/R130A limits assumed): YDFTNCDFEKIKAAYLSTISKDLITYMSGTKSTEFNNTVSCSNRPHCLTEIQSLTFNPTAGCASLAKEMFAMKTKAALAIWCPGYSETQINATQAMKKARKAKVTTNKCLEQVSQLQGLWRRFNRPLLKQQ
For assay [7], the target named is membrane short-form huTSLP fusion protein (human). Put plainly: FACS on cells expressing membrane short-form huTSLP, MFI; ambiguous fit of a flat curve (Bottom 692.9, Top 827.7), see non_binding; unit taken from the concentration axis.
Chain of membrane short-form huTSLP fusion protein (human) (chain, as listed by the source limits assumed): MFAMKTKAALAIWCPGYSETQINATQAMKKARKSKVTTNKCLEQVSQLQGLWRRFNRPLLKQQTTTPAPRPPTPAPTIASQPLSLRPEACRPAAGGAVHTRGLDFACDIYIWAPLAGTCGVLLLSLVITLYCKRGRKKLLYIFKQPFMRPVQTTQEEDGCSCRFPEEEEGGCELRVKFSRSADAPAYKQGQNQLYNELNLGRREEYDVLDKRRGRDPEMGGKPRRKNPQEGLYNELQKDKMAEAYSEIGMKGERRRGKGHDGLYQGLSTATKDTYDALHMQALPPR

Chain of human long form TSLP expressed on cell membrane (fusion protein, as listed by the source): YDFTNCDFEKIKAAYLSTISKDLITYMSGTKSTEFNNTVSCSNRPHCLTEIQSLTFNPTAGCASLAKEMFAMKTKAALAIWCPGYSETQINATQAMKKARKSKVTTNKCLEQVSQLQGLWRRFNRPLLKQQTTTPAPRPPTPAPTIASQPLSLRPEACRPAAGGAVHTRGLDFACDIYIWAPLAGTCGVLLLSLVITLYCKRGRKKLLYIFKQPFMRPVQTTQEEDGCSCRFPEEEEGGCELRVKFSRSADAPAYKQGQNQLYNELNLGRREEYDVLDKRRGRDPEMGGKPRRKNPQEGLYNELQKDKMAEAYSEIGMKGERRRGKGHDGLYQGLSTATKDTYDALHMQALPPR

Regarding IgG2 Isotype (antibody), the figures for the EC50 in assay [1], in assay [2] and in assay [3] were 0.0117 µg/mL, 5.86 µg/mL and 0.322 µg/mL, respectively.

As to Isotype (antibody), the EC50 came out at 21.1 µg/mL in assay [4] and 0.0411 µg/mL in assay [5].

Regarding Isotype mAb (antibody), the concentration for a half-maximal effect (EC50) in assay [6] was 40.8 µg/mL; in assay [7], 0.0115 µg/mL.

Broadly, the EC50 is the midpoint of the concentration-response curve. Low readings indicate higher potency in that assay, high ones lower potency in that assay.
